# Numbering of substitutions follows the chain as printed.
# T1: human IL-36R extracellular domain expressed with a C-terminal mouse IgG2a Fc tag (hIL-36R-mFc) (human; mouse, UniProt Q9HB29 20-337)
# T1 construct: not shown: mouse IgG2a Fc, E98-K330
# T1 sequence (looked up): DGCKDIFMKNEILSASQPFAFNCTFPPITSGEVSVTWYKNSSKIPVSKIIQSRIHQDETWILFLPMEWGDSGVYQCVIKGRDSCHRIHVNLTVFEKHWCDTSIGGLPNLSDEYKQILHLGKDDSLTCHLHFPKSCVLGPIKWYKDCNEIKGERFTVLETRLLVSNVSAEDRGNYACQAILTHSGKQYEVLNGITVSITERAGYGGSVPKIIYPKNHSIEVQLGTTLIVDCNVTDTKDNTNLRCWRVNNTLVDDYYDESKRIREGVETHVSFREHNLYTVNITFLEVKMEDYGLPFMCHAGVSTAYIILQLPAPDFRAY
# T2: in-line fusion protein of human IL-36R extracellular domain and IL1RAcP extracellular domain expressed with … (human; mouse, UniProt Q9HB29 20-337; Q9NPH3 21-359, limits assumed)
# T2 construct: not shown: mouse IgG2a Fc
# T2 sequence (looked up): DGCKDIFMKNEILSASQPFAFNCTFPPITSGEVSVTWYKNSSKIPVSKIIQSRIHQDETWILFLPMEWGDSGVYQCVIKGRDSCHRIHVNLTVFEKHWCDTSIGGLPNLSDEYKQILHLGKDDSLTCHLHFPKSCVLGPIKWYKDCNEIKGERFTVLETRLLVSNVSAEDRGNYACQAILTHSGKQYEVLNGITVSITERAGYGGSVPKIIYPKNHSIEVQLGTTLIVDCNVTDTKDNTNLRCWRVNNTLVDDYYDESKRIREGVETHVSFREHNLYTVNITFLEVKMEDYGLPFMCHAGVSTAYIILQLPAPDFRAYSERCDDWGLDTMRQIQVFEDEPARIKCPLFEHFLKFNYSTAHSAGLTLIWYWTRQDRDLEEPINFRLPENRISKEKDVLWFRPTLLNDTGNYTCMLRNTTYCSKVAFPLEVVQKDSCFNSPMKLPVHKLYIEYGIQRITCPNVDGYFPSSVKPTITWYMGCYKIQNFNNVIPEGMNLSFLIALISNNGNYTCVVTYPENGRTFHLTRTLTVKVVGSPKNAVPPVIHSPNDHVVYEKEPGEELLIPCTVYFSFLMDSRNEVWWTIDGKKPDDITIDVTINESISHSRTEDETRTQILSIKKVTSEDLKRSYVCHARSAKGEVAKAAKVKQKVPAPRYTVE
# B1: H4H14709P (antibody, human IgG4 S228P, kappa, V domains shown)
# VH: EVQLVESGGGLVQPGGSLRLSCAASGFTFSDYAMSWVRQAPGKGLEWVSGISGNGGDTYYGDFVKGRFTISRDNSKNTLYLQMNSLRGEDTAAYFCVIDLDYWGQGTLVTVSS
# VL: DIQMTQSPSTLSASEGDRVTITCRASQSISSWLAWYQQKPGKAPRLLIYKASILGDGVPSRFSGSGSGTEFTLTISSLQPDDFATYYCHQYNSYLWTFGQGTKVEIKR
# notes: Fully human anti-IL-36R antibody
# B2: H4H14728P (antibody, human IgG4 S228P, kappa, V domains shown)
# VH: QVQLQESGPGLVKPSQTLSLTCTVSGGSISSADYYWSWIRQHPGKGLEWIGSIYYTGSTYYNPSLKSRLTISIDTSENQFSLKLTSLTAADTAVYYCASEEANWGSHFDSWGQGTLVTVSS
# VL: DIQMTQSPSSLSASVGDRVTITCRASQSIDNFLNWYQQKPGKAPKLLIYAASSLQSGVPSRFSGSGSGTDFTLTISSLQPEDFASYYCQHSHSAHPITFGQGTRLEIKR
# notes: as for B1
# B3: H4H14731P (antibody, human IgG4 S228P, kappa, V domains shown)
# VH: QLQLQESGPGLVKPSETLSLTCTVSGGSISSSNYYWGWIRQPPGKRLEWIGSIYYSGSTYYNPSLKTRVTISVDTSKNQFSLKLTSVTAADTAVYYCAREEAAALTHFDFWGQGTLVTVSS
# VL: B2 VL with D30S, F32Y, Y49F, S85T, A94S
# notes: as for B1
# Experiments:
# [1] = molecular target: T1, human IL-36R extracellular domain …; test: SPR Biacore 4000, mAb captured on anti-hFc, 25C
# Procedure: (§1) Equilibrium dissociation constants (KD values) for IL-36R binding to purified anti-IL-36R antibodies were determined using a real-time surface plasmon resonance biosensor using a Biacore 4000 instrument. The Biacore sensor surface was first derivatized by amine coupling with a monoclonal mouse anti-human Fc antibody (GE, # BR-1008-39) to capture anti-IL-36R monoclonal antibodies. All binding studies were performed in 0.01 M Hepes pH 7.4, 0.15 M NaCl, 3 mM EDTA, and 0.05% v/v Surfactant Tween-20 (HBS-ET running buffer) at 25° C. and 37° C. Different concentrations of IL-36R reagents, human IL-36R extracellular domain expressed with a C-terminal myc-myc-hexahistidine tag (hIL-36R-MMH), Macaca fascicularis IL-36R extracellular domain expressed with a C-terminal myc-myc-hexahistidine tag (mfIL-36R-MMH: mROR1 signal sequence (M1-A29). Macaca fascicularis IL36R_ecto domain (D20-A336).mycmycHis6), human IL-36R extracellular domain expressed with a C-terminal mouse IgG2a Fc tag (hIL-36R-mFc: mROR1 signal sequence (M1-A29)-human IL36R (D20-Y337)-mouse IgG2aFc (E98-K330)) or an in-line fusion protein of human IL-36R extracellular domain and IL1RAcP extracellular domain expressed with mouse IgG2a Fc tag (hIL-36R-Trap-mFc: mROR1 signal sequence (M1-A29)-human IL36R ecto domain (D20-Y337)-human IL1RacP ecto domain(S21-E359)-mouse IgG2aFc) in HBS-ET running buffer (ranging from 100 nM to 3.7 nM, 3-fold dilutions) were injected over the anti-IL-36R antibody captured surface for 4 minutes at a flow rate of 30 μL/minute and their dissociation in HBS-ET running buffer was monitored for 10 minutes. Kinetic association rate constant (kₐ) and dissociation rate constant (kd) were determined by fitting the real-time sensorgrams to a 1:1 binding model using Scrubber 2.0c curve fitting software. Binding dissociation equilibrium constants (KD) and dissociative half-lives (t_{1/2}) were calculated from the kinetic rate constants as: […]
# [2] = molecular target: T2, in-line fusion protein of human IL-36R …; test: SPR Biacore 4000, mAb captured on anti-hFc, 25C
# Procedure: as §1
# [3] = molecular target: T1, human IL-36R extracellular domain …; test: SPR Biacore 4000, mAb captured on anti-hFc, 37C
# Procedure: as §1
# [4] = molecular target: T2, in-line fusion protein of human IL-36R …; test: SPR Biacore 4000, mAb captured on anti-hFc, 37C
# Procedure: as §1
# [5] = molecular target: T3, human IL-36R extracellular domain expressed with a C-terminal myc-myc-hexahistidine tag (hIL-36R-MMH) (human, UniProt Q9HB29 20-337); test: SPR Biacore T200, mAb captured on anti-hFc, 25C, PBS-T pH 6.0 running buffer
# T3 construct: also called Human IL-36R-MMH; REGN2105
# Procedure: (§2) Additional binding experiments were performed to determine the effect of pH on the rate of dissociation of IL-36R bound to purified anti-IL-36R antibodies, which was determined using a real-time surface plasmon resonance biosensor using a Biacore T200 instrument. The Biacore sensor surface was first derivatized by amine coupling with a monoclonal mouse anti-human Fc antibody (GE, # BR-1008-39) to capture anti-IL-36R antibodies. […] Different concentrations of hIL-36R-MMH and mfIL-36R-MMH prepared in PBS-T, pH7.4 buffer (ranging from 100 nM to 11.11 nM, 3-fold dilutions) were injected over the anti-IL-36R antibody captured surface for 4 minutes at a flow rate of 50 μL/minute and their dissociation in two running buffers, PBS-T, pH7.4 and PBS-T, pH 6.0, was monitored for 10 minutes. All of these binding kinetics experiments were performed at 25° C. and 37° C. Kinetic dissociation constant (kd) were determined by fitting the real-time sensorgrams to a 1:1 binding model using Scrubber 2.0c curve fitting software. Binding dissociative half-lives (t_{1/2}) were calculated from kd as: […]
# [6] = molecular target: T3, human IL-36R extracellular domain …; test: SPR Biacore T200, mAb captured on anti-hFc, 25C, PBS-T pH 7.4 running buffer
# Procedure: as §2
# [7] = molecular target: T3, human IL-36R extracellular domain …; test: SPR Biacore T200, mAb captured on anti-hFc, 37C, PBS-T pH 6.0 running buffer
# Procedure: as §2
# [8] = molecular target: T3, human IL-36R extracellular domain …; test: SPR Biacore T200, mAb captured on anti-hFc, 37C, PBS-T pH 7.4 running buffer
# Procedure: as §2
# T3 sequence (Q9HB29 other isoform, or with tags, fused parts or gaps limits assumed): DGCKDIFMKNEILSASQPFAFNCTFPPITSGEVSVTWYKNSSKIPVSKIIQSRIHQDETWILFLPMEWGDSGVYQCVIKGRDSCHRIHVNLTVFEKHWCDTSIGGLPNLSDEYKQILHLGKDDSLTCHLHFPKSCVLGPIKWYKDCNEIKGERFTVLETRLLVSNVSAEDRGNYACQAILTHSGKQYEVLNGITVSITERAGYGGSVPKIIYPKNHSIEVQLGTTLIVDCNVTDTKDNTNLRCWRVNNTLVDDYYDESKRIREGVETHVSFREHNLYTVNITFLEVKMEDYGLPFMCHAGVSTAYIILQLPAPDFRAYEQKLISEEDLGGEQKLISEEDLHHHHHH
Binder,100 nM hIL-36R-mFc Bound (RU) [1],100 nM hIL-36R-Trap-mFc Bound (RU) [2],Kd [2],koff [2],kon [2],t1/2 [2],100 nM hIL-36R-mFc Bound (RU) [3],Kd [3],koff [3],kon [3],t1/2 [3],100 nM hIL-36R-Trap-mFc Bound (RU) [4],Kd [4],koff [4],kon [4],t1/2 [4],100 nM Human IL-36R-MMH Bound (RU) [5],koff [5],t1/2 [5],100 nM Human IL-36R-MMH Bound (RU) [6],further results
B1,142 RU,173 RU,0.404 nM,8.07e-05 s⁻¹,200000 M⁻¹ s⁻¹,143 min,211 RU,0.205 nM,0.000112 s⁻¹,543000 M⁻¹ s⁻¹,104 min,257 RU,0.264 nM,0.000123 s⁻¹,467000 M⁻¹ s⁻¹,94 min,99 RU,0.000842 s⁻¹,14 min,111 RU,Kd [1]: 0.335 nM; koff [1]: 8.62e-05 s⁻¹; kon [1]: 257000 M⁻¹ s⁻¹; t1/2 [1]: 134 min; koff [6]: 0.00042 s⁻¹; t1/2 [6]: 28 min; 100 nM hIL-36R-MMH Bound (RU) [7]: 146 RU; koff [7]: 0.00172 s⁻¹; t1/2 [7]: 7 min; 100 nM hIL-36R-MMH Bound (RU) [8]: 159 RU; koff [8]: 0.000704 s⁻¹; t1/2 [8]: 16 min
B2,7 RU,63 RU,14 nM,0.000565 s⁻¹,40300 M⁻¹ s⁻¹,20 min,11 RU,28.7 nM,0.000465 s⁻¹,16200 M⁻¹ s⁻¹,25 min,89 RU,40.9 nM,0.00198 s⁻¹,48500 M⁻¹ s⁻¹,6 min,96 RU,0.000887 s⁻¹,13 min,103 RU,koff [6]: 0.000898 s⁻¹; t1/2 [6]: 13 min; 100 nM hIL-36R-MMH Bound (RU) [7]: 114 RU; koff [7]: 0.00306 s⁻¹; t1/2 [7]: 4 min; 100 nM hIL-36R-MMH Bound (RU) [8]: 121 RU; koff [8]: 0.00296 s⁻¹; t1/2 [8]: 4 min
B3,10 RU,60 RU,4.45 nM,0.000201 s⁻¹,45200 M⁻¹ s⁻¹,57 min,12 RU,6.43 nM,0.00045 s⁻¹,69900 M⁻¹ s⁻¹,26 min,78 RU,9.77 nM,0.000514 s⁻¹,52600 M⁻¹ s⁻¹,22 min,43 RU,0.000679 s⁻¹,17 min,65 RU,Kd [1]: 5.79 nM; koff [1]: 0.000323 s⁻¹; kon [1]: 55800 M⁻¹ s⁻¹; t1/2 [1]: 36 min; koff [6]: 0.000553 s⁻¹; t1/2 [6]: 21 min; 100 nM hIL-36R-MMH Bound (RU) [7]: 84 RU; koff [7]: 0.00201 s⁻¹; t1/2 [7]: 6 min; 100 nM hIL-36R-MMH Bound (RU) [8]: 91 RU; koff [8]: 0.00108 s⁻¹; t1/2 [8]: 11 min

# Reference: patent US20200017592A1 (Regeneron, published 2020)
